First the molecules themselves.
B1: BBSome complex member BBS2 (Homo sapiens), Q9BXC9 (parent)
chain: MLLPVFTLKLRHKISPRMVAIGRYDGTHPCLAAATQTGKVFIHNPHTRNQHVSASRVFQSPLESDVSLLSINQAVSCLTAGVLNPELGYDALLVGTQTNLLAYDVYNNSDLFYREVADGANAIVLGTLGDISSPLAIIGGNCALQGFNHEGSDLFWTVTGDNVNSLALCDFDGDGKKELLVGSEDFDIRVFKEDEIVAEMTETEIVTSLCPMYGSRFGYALSNGTVGVYDKTSRYWRIKSKNHAMSIHAFDLNSDGVNELITGWSNGKVDARSDRTGEVIFKDNFSSAIAGVVEGDYRMDGHIQLICCSVDGEIRGYLPGTAEMRGNLMDTSAEQDLIRELSQKKQNLLLELRNYEENAKAELASPLNEADGHRGIIPANTRLHTTLSVSLGNETQTAHTELRISTSNDTIIRAVLIFAEGIFTGESHVVHPSIHNLSSSICIPIVPPKDVPVDLHLKAFVGYRSSTQFHVFESTRQLPRFSMYALTSLDPASEPISYVNFTIAERAQRVVVWLGQNFLLPEDTHIQNAPFQVCFTSLRNGGHLHIKIKLSGEITINTDDIDLAGDIIQSMASFFAIEDLQVEADFPVYFEELRKVLVKVDEYHSVHQKLSADMADHSNLIRSLLVGAEDARLMRDMKTMKSRYMELYDLNRDLLNGYKIRCNNHTELLGNLKAVNQAIQRAGRLRVGKPKNQVITACRDAIRSNNINTLFKIMRVGTASS
partner: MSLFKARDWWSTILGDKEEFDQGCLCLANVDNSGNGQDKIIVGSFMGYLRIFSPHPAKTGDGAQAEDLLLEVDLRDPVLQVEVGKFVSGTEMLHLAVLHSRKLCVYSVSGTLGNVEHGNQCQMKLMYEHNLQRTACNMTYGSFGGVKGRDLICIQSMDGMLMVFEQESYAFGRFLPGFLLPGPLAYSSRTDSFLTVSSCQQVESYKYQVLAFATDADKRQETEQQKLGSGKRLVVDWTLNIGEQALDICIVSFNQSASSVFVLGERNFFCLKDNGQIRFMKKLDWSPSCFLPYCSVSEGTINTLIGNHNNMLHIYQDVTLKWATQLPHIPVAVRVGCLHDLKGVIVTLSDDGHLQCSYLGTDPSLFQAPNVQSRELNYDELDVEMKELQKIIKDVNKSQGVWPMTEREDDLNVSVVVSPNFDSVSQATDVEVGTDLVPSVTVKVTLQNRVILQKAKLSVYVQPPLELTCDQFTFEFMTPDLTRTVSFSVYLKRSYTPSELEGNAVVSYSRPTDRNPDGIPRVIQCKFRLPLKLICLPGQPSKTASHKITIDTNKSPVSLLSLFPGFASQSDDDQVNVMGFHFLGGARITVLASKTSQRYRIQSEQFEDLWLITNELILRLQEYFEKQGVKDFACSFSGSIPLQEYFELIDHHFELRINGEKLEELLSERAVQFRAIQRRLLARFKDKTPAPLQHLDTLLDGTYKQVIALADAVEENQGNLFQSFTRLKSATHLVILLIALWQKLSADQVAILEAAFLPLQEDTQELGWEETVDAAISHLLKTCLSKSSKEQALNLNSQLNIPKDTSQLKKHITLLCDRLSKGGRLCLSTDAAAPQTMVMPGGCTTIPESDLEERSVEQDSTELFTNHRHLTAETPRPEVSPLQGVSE

The variants in this assay derive from B1. Conditions: with pthb1_human BBS9, Q3SYG4.
On to V596E, for which the “effect of a mutation on the interaction” value is “with no effect”.

With V596A, the “effect of a mutation on the interaction” value is listed as “with no effect”.

On to V596K, for which the “effect of a mutation on the interaction” value is on record as “with no effect”.

Turning to S551K, the “effect of a mutation on the interaction” value is reported as “with no effect”.

Turning to S551A, the “effect of a mutation on the interaction” value was “with no effect”.

Turning to S551E, the “effect of a mutation on the interaction” value was “with no effect”.

On to D579K, for which the “effect of a mutation on the interaction” value is “with no effect”.

On to D579A, for which the “effect of a mutation on the interaction” value is “with no effect”.

For D579E, the “effect of a mutation on the interaction” value is “with no effect”.

Take H604E: the “effect of a mutation on the interaction” value is on record as “with no effect”.

H604A: the “effect of a mutation on the interaction” value is reported as “with no effect”.

On to H604K, for which the “effect of a mutation on the interaction” value was “with no effect”.

On to L580A, for which the “effect of a mutation on the interaction” value is recorded as “with no effect”.

L580K: the “effect of a mutation on the interaction” value is given as “with no effect”.

Turning to L580E, the “effect of a mutation on the interaction” value is listed as “with no effect”.

On to I546K, for which the “effect of a mutation on the interaction” value is “with no effect”.

Regarding I546A, the “effect of a mutation on the interaction” value is reported as “with no effect”.

Regarding I546E, the “effect of a mutation on the interaction” value is listed as “disrupting interaction strength”.

Regarding I577E, the “effect of a mutation on the interaction” value is “with no effect”.

Take I577K: the “effect of a mutation on the interaction” value was “with no effect”.

As to I577A, the “effect of a mutation on the interaction” value is “with no effect”.

As for L597K, the “effect of a mutation on the interaction” value was “with no effect”.

In the case of L597A, the “effect of a mutation on the interaction” value is reported as “with no effect”.

Consider L597E, for which the “effect of a mutation on the interaction” value is on record as “with no effect”.

As to I561E, the “effect of a mutation on the interaction” value is “with no effect”.

For I561F, the “effect of a mutation on the interaction” value is “disrupting interaction strength”.

I561A: the “effect of a mutation on the interaction” value is recorded as “with no effect”.

In the case of I561K, the “effect of a mutation on the interaction” value is “with no effect”.

As for E591K, the “effect of a mutation on the interaction” value is recorded as “with no effect”.

E591A: the “effect of a mutation on the interaction” value was “with no effect”.

F590E: the “effect of a mutation on the interaction” value is given as “with no effect”.

Consider F590A, for which the “effect of a mutation on the interaction” value is on record as “with no effect”.

Turning to F590K, the “effect of a mutation on the interaction” value is “with no effect”.

For the variant T558A, the “effect of a mutation on the interaction” value is “with no effect”.

T558E: the “effect of a mutation on the interaction” value was “with no effect”.

With T558K, the “effect of a mutation on the interaction” value is given as “with no effect”.

Take V598K: the “effect of a mutation on the interaction” value is reported as “with no effect”.

Take V598E: the “effect of a mutation on the interaction” value is recorded as “with no effect”.

Regarding V598A, the “effect of a mutation on the interaction” value was “with no effect”.

As for N557E, the “effect of a mutation on the interaction” value was “with no effect”.

For N557K, the “effect of a mutation on the interaction” value is listed as “with no effect”.

In the case of N557A, the “effect of a mutation on the interaction” value is “with no effect”.

Regarding S573K, the “effect of a mutation on the interaction” value is on record as “with no effect”.

Consider S573A, for which the “effect of a mutation on the interaction” value is “with no effect”.

On to S573E, for which the “effect of a mutation on the interaction” value is “with no effect”.

For I554A, the “effect of a mutation on the interaction” value was “with no effect”.

As to I554E, the “effect of a mutation on the interaction” value is reported as “with no effect”.

With I554K, the “effect of a mutation on the interaction” value is “with no effect”.

As for I554G, the “effect of a mutation on the interaction” value is “disrupting interaction strength”.

On to K547E, for which the “effect of a mutation on the interaction” value is on record as “with no effect”.

Consider K547A, for which the “effect of a mutation on the interaction” value is “with no effect”.

Turning to R594K, the “effect of a mutation on the interaction” value is “with no effect”.

Regarding R594E, the “effect of a mutation on the interaction” value is “with no effect”.

Take R594A: the “effect of a mutation on the interaction” value is “with no effect”.

For the variant V606K, the “effect of a mutation on the interaction” value is given as “with no effect”.

Turning to V606A, the “effect of a mutation on the interaction” value is listed as “with no effect”.

With V606E, the “effect of a mutation on the interaction” value is recorded as “with no effect”.

For the variant Q581K, the “effect of a mutation on the interaction” value was “with no effect”.

As to Q581A, the “effect of a mutation on the interaction” value was “with no effect”.

For the variant Q581E, the “effect of a mutation on the interaction” value was “with no effect”.

Regarding G565K, the “effect of a mutation on the interaction” value is “with no effect”.

On to G565A, for which the “effect of a mutation on the interaction” value is given as “with no effect”.

Regarding G565E, the “effect of a mutation on the interaction” value is recorded as “with no effect”.

Turning to F575E, the “effect of a mutation on the interaction” value is given as “with no effect”.

Take F575K: the “effect of a mutation on the interaction” value is listed as “with no effect”.

On to F575A, for which the “effect of a mutation on the interaction” value is recorded as “with no effect”.

Turning to D562A, the “effect of a mutation on the interaction” value was “disrupting interaction strength”.

In the case of D562K, the “effect of a mutation on the interaction” value is “with no effect”.

In the case of D562V, the “effect of a mutation on the interaction” value was “disrupting interaction strength”.

Take D562E: the “effect of a mutation on the interaction” value is given as “with no effect”.

On to D601A, for which the “effect of a mutation on the interaction” value was “with no effect”.

As to D601K, the “effect of a mutation on the interaction” value is given as “with no effect”.

D601E: the “effect of a mutation on the interaction” value is recorded as “with no effect”.

For the variant V588E, the “effect of a mutation on the interaction” value is given as “with no effect”.

For V588K, the “effect of a mutation on the interaction” value was “with no effect”.

Take V588A: the “effect of a mutation on the interaction” value is on record as “with no effect”.

Regarding F574A, the “effect of a mutation on the interaction” value is reported as “with no effect”.

Regarding F574K, the “effect of a mutation on the interaction” value is “with no effect”.

For F574E, the “effect of a mutation on the interaction” value is on record as “with no effect”.

L563A: the “effect of a mutation on the interaction” value is “with no effect”.

With L563E, the “effect of a mutation on the interaction” value is listed as “with no effect”.

With L563K, the “effect of a mutation on the interaction” value is given as “with no effect”.

F586E: the “effect of a mutation on the interaction” value is reported as “with no effect”.

With F586A, the “effect of a mutation on the interaction” value is on record as “with no effect”.

For the variant F586K, the “effect of a mutation on the interaction” value is on record as “with no effect”.

Take H545E: the “effect of a mutation on the interaction” value is reported as “with no effect”.

For H545A, the “effect of a mutation on the interaction” value was “with no effect”.

H545K: the “effect of a mutation on the interaction” value was “with no effect”.

K599A: the “effect of a mutation on the interaction” value is listed as “with no effect”.

With K599E, the “effect of a mutation on the interaction” value is “with no effect”.

Regarding S605E, the “effect of a mutation on the interaction” value was “with no effect”.
